Data set [1] deals with T1, hRev1 330-833 (core polymerase domain) (human, UniProt Q9UBZ9 330-833).
T1 sequence: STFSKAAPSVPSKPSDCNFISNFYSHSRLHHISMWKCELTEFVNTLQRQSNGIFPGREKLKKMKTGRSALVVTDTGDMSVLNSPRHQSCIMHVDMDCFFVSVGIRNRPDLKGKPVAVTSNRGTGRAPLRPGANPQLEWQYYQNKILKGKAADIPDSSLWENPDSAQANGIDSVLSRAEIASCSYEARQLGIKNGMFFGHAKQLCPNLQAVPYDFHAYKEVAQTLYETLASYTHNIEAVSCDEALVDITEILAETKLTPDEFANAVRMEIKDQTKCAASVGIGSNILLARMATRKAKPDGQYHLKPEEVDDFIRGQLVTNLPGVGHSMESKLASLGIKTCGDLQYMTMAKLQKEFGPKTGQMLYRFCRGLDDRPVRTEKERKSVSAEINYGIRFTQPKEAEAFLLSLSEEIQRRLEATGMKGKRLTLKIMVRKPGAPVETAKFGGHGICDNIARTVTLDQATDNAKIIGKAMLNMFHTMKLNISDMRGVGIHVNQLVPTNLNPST
The data set can be described thus: fluorescence polarization. (In general: Fluorescence polarisation rises when a labelled molecule tumbles more slowly, as on binding a larger partner.)

For data set [2], the target named is T1, hRev1 330-833 (core polymerase domain). Put plainly: stopped-flow fluorescence quenching.
The target is the same in data set [3]. Put plainly: stopped-flow fluorescence quenching. The source holds these as a separate data set.
Data set [4] has the same target. The data set can be described thus: DMS footprinting.

Consider TATGTGACTATGCTGGGTAGGGGAGGAT (ssDNA) [ss-non-G4 DNA 28-mer], for which the Kd (commonly the free concentration of one partner at which half of the binding sites on the other are occupied at equilibrium, for simple one-to-one binding) in data set [1] was found to be 65.7 ± 8.8 nM.

B1: 11/28-mer primer-template non-G4 DNA (mixed)
DNA 1: TATGTGACTATGCTGGGTAGGGGAGGAT
DNA 2: ATCCTCCCCTA
In data set [1], B1 yielded a Kd of 129 ± 20 nM. Still for that read-out and setting: then TGGGTGGGTAGGGTGGGTAGGGGAGGAT (structured_DNA) [ss-G4 DNA 28-mer], with 15.7 ± 8.7 nM.

B2: 11/28-mer primer-template G4 DNA (mixed)
DNA 1: TGGGTGGGTAGGGTGGGTAGGGGAGGAT
DNA 2: ATCCTCCCCTA
In turn, B2 registered a Kd in data set [1] of 8.4 ± 2.5 nM.

B3: FAM/Dab 18/42-mer G4 DNA (mixed)
DNA 1: TGAGGGTGGGTAGGGTGGGTGCGTCTGCGGCTGGCTCGAGGC
DNA 2: GCCTCGAGCCAGCCGCAG
Turning to B3, in data set [2], the binding result is listed as “binds”.

On to TGAGGGTGGGTAGGGTGGGTGCGTCTGCGGCTGGCTCGAGGC (structured_DNA) [FAM/Dab 42-mer ss-G4 DNA (Myc2345 G14/23T)], for which the binding result in data set [3] was “binds”.

B4: 23/42-mer Myc2345 G14/23T primer-template (mixed)
DNA 1: B3 DNA 1
DNA 2: GCCTCGAGCCAGCCGCAGACGCA
B4: the binding result in data set [4] is listed as “binds”.
